Experimental data: PMC12102759 (2025)

B1: AMOTL2 peptide 64-79 (Angiomotin-like protein 2), 16-mer library wild type / TNKS ANK (TNKS 12 ANK repeats, residues 174-649) (parent complex)
chain 1: QVLQQATRQEPQGQEH
chain 2: TGVPAVSGALRELLEACRNGDVSRVKRLVDAANVNAKDMAGRKSSPLHFAAGFGRKDVVEHLLQMGANVHARDDGGLIPLHNACSFGHAEVVSLLLCQGADPNARDNWNYTPLHEAAIKGKIDVCIVLLQHGADPNIRNTDGKSALDLADPSAKAVLTGEYKKDELLEAARSGNEEKLMALLTPLNVNCHASDGRKSTPLHLAAGYNRVRIVQLLLQHGADVHAKDKGGLVPLHNACSYGHYEVTELLLKHGACVNAMDLWQFTPLHEAASKNRVEVCSLLLSHGADPTLVNCHGKSAVDMAPTPELRERLTYEFKGHSLLQAAREADLAKVKKTLALEIINFKQPQSHETALHCAVASLHPKRKQVTELLLRKGANVNEKNKDFMTPLHVAAERAHNDVMEVLHKHGAKMNALDTLGQTALHRAALAGHLQTCRLLLSYGSDPSIISLQGFTAAQMGNEAVQQILSESTPIRTSD

Variants of: B1
Experiment: proteomic peptide phage display deep mutational scan (ProP-PD DMS): M13 P8 16-mer library selected against immobilised GST-tagged bait for four days (rounds), NGS of the eluted pools per day and pseudo-replica; bait immobilised on MaxiSorp plates (10 µg), library pre-cleared on GST, 2 h binding at 4 °C, five washes; one round per day, days 1-4; value from days 2 and 3

Variant	screen value
chain 1 E10K	0.000435 average fractional NGS count over selection days 2 and 3 (reads of this peptide / all reads for the bait, averaged over …
chain 1 E10A	0.00157 average fractional NGS count over selection days 2 and 3 (reads of this peptide / all reads for the bait, averaged over …
chain 1 E10V	0.000245 average fractional NGS count over selection days 2 and 3 (reads of this peptide / all reads for the bait, averaged over …
chain 1 E10T	0.00297 average fractional NGS count over selection days 2 and 3 (reads of this peptide / all reads for the bait, averaged over …
chain 1 E10S	0.000835 average fractional NGS count over selection days 2 and 3 (reads of this peptide / all reads for the bait, averaged over …
chain 1 E10Q	0.000624 average fractional NGS count over selection days 2 and 3 (reads of this peptide / all reads for the bait, averaged over …
chain 1 E10P	0.00208 average fractional NGS count over selection days 2 and 3 (reads of this peptide / all reads for the bait, averaged over …
chain 1 E10L	0.000172 average fractional NGS count over selection days 2 and 3 (reads of this peptide / all reads for the bait, averaged over …
chain 1 E10F	0.000339 average fractional NGS count over selection days 2 and 3 (reads of this peptide / all reads for the bait, averaged over …
chain 1 E10N	0.000822 average fractional NGS count over selection days 2 and 3 (reads of this peptide / all reads for the bait, averaged over …
chain 1 E10I	0.000303 average fractional NGS count over selection days 2 and 3 (reads of this peptide / all reads for the bait, averaged over …
chain 1 E10Y	0.00125 average fractional NGS count over selection days 2 and 3 (reads of this peptide / all reads for the bait, averaged over …
chain 1 E10G	0.00177 average fractional NGS count over selection days 2 and 3 (reads of this peptide / all reads for the bait, averaged over …
chain 1 L3A	0.000396 average fractional NGS count over selection days 2 and 3 (reads of this peptide / all reads for the bait, averaged over …
chain 1 L3K	0.00157 average fractional NGS count over selection days 2 and 3 (reads of this peptide / all reads for the bait, averaged over …
chain 1 L3D	0.000181 average fractional NGS count over selection days 2 and 3 (reads of this peptide / all reads for the bait, averaged over …
chain 1 L3Y	0.000502 average fractional NGS count over selection days 2 and 3 (reads of this peptide / all reads for the bait, averaged over …
chain 1 L3M	0.000608 average fractional NGS count over selection days 2 and 3 (reads of this peptide / all reads for the bait, averaged over …
chain 1 L3G	0.000399 average fractional NGS count over selection days 2 and 3 (reads of this peptide / all reads for the bait, averaged over …
chain 1 L3V	0.00036 average fractional NGS count over selection days 2 and 3 (reads of this peptide / all reads for the bait, averaged over …
chain 1 L3S	0.000145 average fractional NGS count over selection days 2 and 3 (reads of this peptide / all reads for the bait, averaged over …
chain 1 L3N	0.00173 average fractional NGS count over selection days 2 and 3 (reads of this peptide / all reads for the bait, averaged over …
chain 1 L3E	0.00384 average fractional NGS count over selection days 2 and 3 (reads of this peptide / all reads for the bait, averaged over …
chain 1 L3R	0.000319 average fractional NGS count over selection days 2 and 3 (reads of this peptide / all reads for the bait, averaged over …
chain 1 L3T	0.00246 average fractional NGS count over selection days 2 and 3 (reads of this peptide / all reads for the bait, averaged over …

Variant	screen value
chain 1 L3H	0.00318 average fractional NGS count over selection days 2 and 3 (reads of this peptide / all reads for the bait, averaged over …
chain 1 L3Q	0.00366 average fractional NGS count over selection days 2 and 3 (reads of this peptide / all reads for the bait, averaged over …
chain 1 V2A	0.00302 average fractional NGS count over selection days 2 and 3 (reads of this peptide / all reads for the bait, averaged over …
chain 1 V2W	0.00102 average fractional NGS count over selection days 2 and 3 (reads of this peptide / all reads for the bait, averaged over …
chain 1 V2S	0.000464 average fractional NGS count over selection days 2 and 3 (reads of this peptide / all reads for the bait, averaged over …
chain 1 V2I	0.0014 average fractional NGS count over selection days 2 and 3 (reads of this peptide / all reads for the bait, averaged over …
chain 1 V2M	0.000248 average fractional NGS count over selection days 2 and 3 (reads of this peptide / all reads for the bait, averaged over …
chain 1 V2R	0.000931 average fractional NGS count over selection days 2 and 3 (reads of this peptide / all reads for the bait, averaged over …
chain 1 V2E	0.00192 average fractional NGS count over selection days 2 and 3 (reads of this peptide / all reads for the bait, averaged over …
chain 1 V2T	0.00555 average fractional NGS count over selection days 2 and 3 (reads of this peptide / all reads for the bait, averaged over …
chain 1 V2D	0.000341 average fractional NGS count over selection days 2 and 3 (reads of this peptide / all reads for the bait, averaged over …
chain 1 Q9V	0.000414 average fractional NGS count over selection days 2 and 3 (reads of this peptide / all reads for the bait, averaged over …
chain 1 Q9Y	0.000466 average fractional NGS count over selection days 2 and 3 (reads of this peptide / all reads for the bait, averaged over …
chain 1 Q9W	0.000813 average fractional NGS count over selection days 2 and 3 (reads of this peptide / all reads for the bait, averaged over …
chain 1 Q9D	0.00088 average fractional NGS count over selection days 2 and 3 (reads of this peptide / all reads for the bait, averaged over …
chain 1 Q9M	0.000331 average fractional NGS count over selection days 2 and 3 (reads of this peptide / all reads for the bait, averaged over …
chain 1 Q9E	0.000877 average fractional NGS count over selection days 2 and 3 (reads of this peptide / all reads for the bait, averaged over …
chain 1 Q9H	0.000266 average fractional NGS count over selection days 2 and 3 (reads of this peptide / all reads for the bait, averaged over …
chain 1 Q9S	0.000874 average fractional NGS count over selection days 2 and 3 (reads of this peptide / all reads for the bait, averaged over …
chain 1 Q9F	0.000243 average fractional NGS count over selection days 2 and 3 (reads of this peptide / all reads for the bait, averaged over …
chain 1 Q9A	0.00163 average fractional NGS count over selection days 2 and 3 (reads of this peptide / all reads for the bait, averaged over …
chain 1 Q9T	0.000851 average fractional NGS count over selection days 2 and 3 (reads of this peptide / all reads for the bait, averaged over …
chain 1 Q9L	0.000942 average fractional NGS count over selection days 2 and 3 (reads of this peptide / all reads for the bait, averaged over …
chain 1 Q9P	0.00216 average fractional NGS count over selection days 2 and 3 (reads of this peptide / all reads for the bait, averaged over …
chain 1 Q5F	0.00178 average fractional NGS count over selection days 2 and 3 (reads of this peptide / all reads for the bait, averaged over …

Variant	screen value
chain 1 Q5T	0.00669 average fractional NGS count over selection days 2 and 3 (reads of this peptide / all reads for the bait, averaged over …
chain 1 Q5V	0.00207 average fractional NGS count over selection days 2 and 3 (reads of this peptide / all reads for the bait, averaged over …
chain 1 Q5H	0.0129 average fractional NGS count over selection days 2 and 3 (reads of this peptide / all reads for the bait, averaged over …
chain 1 Q5S	0.00183 average fractional NGS count over selection days 2 and 3 (reads of this peptide / all reads for the bait, averaged over …
chain 1 Q5I	0.00183 average fractional NGS count over selection days 2 and 3 (reads of this peptide / all reads for the bait, averaged over …
chain 1 Q5Y	0.000959 average fractional NGS count over selection days 2 and 3 (reads of this peptide / all reads for the bait, averaged over …
chain 1 Q5M	0.000456 average fractional NGS count over selection days 2 and 3 (reads of this peptide / all reads for the bait, averaged over …
chain 1 Q5R	0.000183 average fractional NGS count over selection days 2 and 3 (reads of this peptide / all reads for the bait, averaged over …
chain 1 Q5A	0.000657 average fractional NGS count over selection days 2 and 3 (reads of this peptide / all reads for the bait, averaged over …
chain 1 Q5P	0.000503 average fractional NGS count over selection days 2 and 3 (reads of this peptide / all reads for the bait, averaged over …
chain 1 Q5L	0.00018 average fractional NGS count over selection days 2 and 3 (reads of this peptide / all reads for the bait, averaged over …
chain 1 A6I	0.000647 average fractional NGS count over selection days 2 and 3 (reads of this peptide / all reads for the bait, averaged over …
chain 1 A6Q	0.00606 average fractional NGS count over selection days 2 and 3 (reads of this peptide / all reads for the bait, averaged over …
chain 1 A6G	0.000155 average fractional NGS count over selection days 2 and 3 (reads of this peptide / all reads for the bait, averaged over …
chain 1 A6M	0.000267 average fractional NGS count over selection days 2 and 3 (reads of this peptide / all reads for the bait, averaged over …
chain 1 A6V	0.0104 average fractional NGS count over selection days 2 and 3 (reads of this peptide / all reads for the bait, averaged over …
chain 1 A6L	0.000992 average fractional NGS count over selection days 2 and 3 (reads of this peptide / all reads for the bait, averaged over …
chain 1 A6D	0.000263 average fractional NGS count over selection days 2 and 3 (reads of this peptide / all reads for the bait, averaged over …
chain 1 A6F	0.00286 average fractional NGS count over selection days 2 and 3 (reads of this peptide / all reads for the bait, averaged over …
chain 1 A6T	0.000175 average fractional NGS count over selection days 2 and 3 (reads of this peptide / all reads for the bait, averaged over …
chain 1 A6S	0.000255 average fractional NGS count over selection days 2 and 3 (reads of this peptide / all reads for the bait, averaged over …
chain 1 A6N	0.000341 average fractional NGS count over selection days 2 and 3 (reads of this peptide / all reads for the bait, averaged over …
chain 1 A6R	0.000251 average fractional NGS count over selection days 2 and 3 (reads of this peptide / all reads for the bait, averaged over …
chain 1 A6E	0.000304 average fractional NGS count over selection days 2 and 3 (reads of this peptide / all reads for the bait, averaged over …
chain 1 H16I	0.000704 average fractional NGS count over selection days 2 and 3 (reads of this peptide / all reads for the bait, averaged over …
